Data reported in patent US20140378382A1 (WISCONSIN ALUMNI RESEARCH FOUNDATION, published 2014).
Read-outs that look alike come from different tables or passages of the source. One block for each binder: values may come before it. Non-standard residues stand in square brackets, D forms with d. Primed or numbered codes have the meaning given here. No end group written: not given here. APC = aminopyrrolidine carboxylic acid (2-aminopyrrolidine-4-carboxylic acid); ACPC″ = 2-aminocyclopentane carboxylic acid (X); ACPC = 2-aminocyclopentane carboxylic acid; β3hS = N[C@@H](CO)CC(=O)O; Aib = CC(C)(N)C(=O)O

Legend:
[1] = target: T1, human parathyroid hormone receptor 1, wild-type (hPTHR-1) (human, UniProt Q03431 27-593); assay: cell-based or functional assay
T1 sequence (looked up): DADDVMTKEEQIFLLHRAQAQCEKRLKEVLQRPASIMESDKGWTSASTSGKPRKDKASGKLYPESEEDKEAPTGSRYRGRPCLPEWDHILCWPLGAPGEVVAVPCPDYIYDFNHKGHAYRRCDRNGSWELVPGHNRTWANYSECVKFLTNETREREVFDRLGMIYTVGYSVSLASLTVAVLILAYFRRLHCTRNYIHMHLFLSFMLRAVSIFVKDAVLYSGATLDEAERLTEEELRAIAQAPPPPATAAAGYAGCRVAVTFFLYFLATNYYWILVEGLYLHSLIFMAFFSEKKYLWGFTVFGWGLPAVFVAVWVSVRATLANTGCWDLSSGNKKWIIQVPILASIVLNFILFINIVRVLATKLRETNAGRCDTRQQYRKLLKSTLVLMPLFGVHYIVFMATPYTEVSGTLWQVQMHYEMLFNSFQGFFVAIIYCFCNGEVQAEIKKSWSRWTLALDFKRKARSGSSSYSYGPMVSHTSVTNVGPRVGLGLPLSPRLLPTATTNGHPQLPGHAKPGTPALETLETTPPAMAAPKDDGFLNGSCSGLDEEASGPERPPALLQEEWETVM

[2] = target: T1, human parathyroid hormone receptor 1, …; assay: R0 binding, GP2.3 membranes (human PTHR-1); tracer not stated here
[3] = target: T2, PTHR-1 (species and cells not stated for the assay) (Homo sapiens (Human), UniProt Q03431 27-593); assay: cell-based or functional assay
T2 sequence: T1 sequence (looked up)

[4] = target: T3, rat parathyroid hormone receptor 1, wild-type (rPTHR-1) (rat, UniProt P25961 27-591); assay: cell-based or functional assay
T3 sequence (looked up): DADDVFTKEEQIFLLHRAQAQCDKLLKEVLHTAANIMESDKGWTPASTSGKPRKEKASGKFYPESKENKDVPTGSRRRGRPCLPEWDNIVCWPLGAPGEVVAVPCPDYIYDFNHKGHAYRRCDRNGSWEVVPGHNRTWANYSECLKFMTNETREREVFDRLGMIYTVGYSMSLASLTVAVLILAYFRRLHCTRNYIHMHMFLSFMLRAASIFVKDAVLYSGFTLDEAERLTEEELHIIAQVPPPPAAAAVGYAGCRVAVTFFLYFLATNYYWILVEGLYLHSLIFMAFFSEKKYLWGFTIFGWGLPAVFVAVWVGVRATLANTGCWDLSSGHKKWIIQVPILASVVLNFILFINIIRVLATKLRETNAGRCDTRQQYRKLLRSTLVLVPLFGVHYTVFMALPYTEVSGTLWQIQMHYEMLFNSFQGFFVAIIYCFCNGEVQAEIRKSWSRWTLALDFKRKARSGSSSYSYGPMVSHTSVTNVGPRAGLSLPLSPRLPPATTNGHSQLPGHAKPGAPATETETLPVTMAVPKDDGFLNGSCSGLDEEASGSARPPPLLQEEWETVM

[5] = target: T1, human parathyroid hormone receptor 1, …; assay: R0 state; 125I-PTH(1-34) displacement; COS-7 membranes, hPTHR-1, GTPγS
From the text: (§1) ^aValues are means of n ≧4 experiments, each performed in duplicate.

[6] = target: T3, rat parathyroid hormone receptor 1, …; assay: R0 state; 125I-PTH(1-34) displacement; COS-7 membranes, rPTHR-1, GTPγS
From the text: (§2) Binding inhibition constants are expressed as the -log (IC50) and corresponding nanoMolar (nM) values. Values are means (±SEM) of the number of experiments shown (n), each performed in duplicate.

[7] = target: T1, human parathyroid hormone receptor 1, …; assay: cell-based or functional assay; remark: listed apart in the source
[8] = target: T3, rat parathyroid hormone receptor 1, …; assay: RG state; 125I-M-PTH(1-15) displacement; COS-7 membranes, rPTHR-1 + Gαs mutant
From the text: as §2

[9] = target: T1, human parathyroid hormone receptor 1, …; assay: cell-based or functional assay; remark: listed apart in the source
[10] = target: T1, human parathyroid hormone receptor 1, …; assay: R0 state; 125I-PTH(1-34) displacement; COS-7 membranes, hPTHR-1, GTPγS; remark: listed apart in the source
From the text: (§3) FIGS. 6A, 6B, 6C, 6D, 6E, and 6F constitute a series of graphs depicting binding of various analogs to the R⁰ and RG forms of human PTHR-1 (hPTHR-1). […] Data are means (±SEM) of n≧4 experiments, each performed in duplicate.

[11] = target: T1, human parathyroid hormone receptor 1, …; assay: RG state; 125I-M-PTH(1-15) displacement; COS-7 membranes, hPTHR-1 + Gαs mutant
From the text: as §3

[12] = target: T1, human parathyroid hormone receptor 1, …; assay: as above; remark: listed apart in the source
From the text: as §1

[13] = target: T1, human parathyroid hormone receptor 1, …; assay: ratio of R0 IC50 to RG IC50, hPTHR-1
[14] = target: T3, rat parathyroid hormone receptor 1, …; assay: ratio of R0 IC50 to RG IC50, rPTHR-1
From the text: as §2

[15] = target: T1, human parathyroid hormone receptor 1, …; assay: cell-based or functional assay; remark: listed apart in the source
delNT PTHR1 = target: T4, delNT PTHR1 (human, UniProt Q03431 27-593); assay: cell-based or functional assay
T4 sequence (looked up): T1 sequence (looked up)

[16] = target: T2, PTHR-1 (species and cells not stated …); assay: cell-based or functional assay; remark: listed apart in the source
[17] = target: parathyroid hormone receptor-2 (PTHR-2); assay: cell-based or functional assay
parathyroid hormone receptor-2 (PTHR-2), sequence (P49190 whole entry): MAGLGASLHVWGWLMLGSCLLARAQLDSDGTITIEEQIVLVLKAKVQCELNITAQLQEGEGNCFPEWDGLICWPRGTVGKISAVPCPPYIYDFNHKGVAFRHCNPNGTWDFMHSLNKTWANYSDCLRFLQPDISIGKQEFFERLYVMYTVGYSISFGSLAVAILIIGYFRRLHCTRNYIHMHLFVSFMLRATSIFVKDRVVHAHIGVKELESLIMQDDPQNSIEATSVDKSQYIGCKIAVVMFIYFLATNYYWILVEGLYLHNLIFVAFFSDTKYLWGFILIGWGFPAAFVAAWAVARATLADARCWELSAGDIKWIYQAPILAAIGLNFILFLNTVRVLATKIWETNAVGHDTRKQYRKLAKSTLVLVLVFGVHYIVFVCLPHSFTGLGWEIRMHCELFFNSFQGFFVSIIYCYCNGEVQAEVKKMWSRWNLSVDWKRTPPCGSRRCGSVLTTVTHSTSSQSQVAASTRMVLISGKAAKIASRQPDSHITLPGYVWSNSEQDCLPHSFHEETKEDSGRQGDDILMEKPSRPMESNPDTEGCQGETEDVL

[18] = target: T2, PTHR-1 (species and cells not stated …); assay: cell-based or functional assay; remark: listed apart in the source
[19] = target: T2, PTHR-1 (species and cells not stated …); assay: cell-based or functional assay; remark: listed apart in the source

B1: CycD6 hPTHrP(1-34) (peptide)
peptide: AVSEHQLLHDKGK[ACPC]IQD[ACPC]RRR[APC]FLH[APC]LIA[ACPC]IHT[ACPC]-NH2
cAMP EC50 [1]: 0.65 nM

B5: B3 (peptide)
peptide: SVSEIQLMHNLGKHLNSMERVEWLRKKLQDVQNF-NH2
modifications: not fully specified (residue 32); printed as SVSEIQLMHNLGKHLNSMERVEWLRKKLQDVQNF-NH2; also: three β3 residues, positions not given here in text
notes: also called α/β-peptide B3
cAMP EC50 [4]: 0.55 nM
cAMP Max [4]: 69 cps × 10-3
cAMP pEC50 [4]: 9.26
IC50 [5]: 80 nM
-log (IC50) [6]: 6.95
IC50 [6]: 111 nM
cAMP EC50 [7]: 0.11 nM
cAMP Max [7]: 234 cps × 10^-3
cAMP pEC50 [7]: 9.94
-log (IC50) [8]: 8.07
IC50 [8]: 8.6 nM
cAMP EC50 [9]: 0.11 nM
cAMP Max [9]: 1.08 relative to PTH(1-34)
-log (IC50) [10]: 7.1
IC50 [10]: 80 nM

B6: D7 (peptide)
peptide: SVSEIQLMHNLGKWLNSMERVEWLRKKLQDVHNF-NH2
modifications: not fully specified (residue 14); printed as SVSEIQLMHNLGKWLNSMERVEWLRKKLQDVHNF-NH2; also: seven β3 residues, positions not given here in text
notes: also called α/β-peptide D7
-log (IC50) [11]: 9.63
IC50 [11]: 0.24 nM
Fold PTH(1-34) [4]: 3.89 fold
cAMP EC50 [4]: 1.62 nM
cAMP Max [4]: 40 cps × 10-3
cAMP pEC50 [4]: 8.79
IC50 [12]: 0.24 nM
R^0/RG [13]: 15 ratio
IC50 [5]: 3.5 nM
-log (IC50) [6]: 7.83
IC50 [6]: 14.8 nM
Fold PTH(1-34) [7]: 2.26 fold
cAMP EC50 [7]: 0.39 nM
cAMP Max [7]: 184 cps × 10^-3
cAMP pEC50 [7]: 9.41
-log (IC50) [8]: 8.69
IC50 [8]: 2 nM
cAMP EC50 [9]: 0.39 nM
cAMP Max [9]: 0.85 relative to PTH(1-34)
-log (IC50) [10]: 8.45
IC50 [10]: 3.5 nM
R^0/RG [14]: 7 ratio

B7: D6 hPTHrP(1-34) ACPC(1,5,7) (peptide)
peptide: [ACPC]VSE[ACPC]Q[ACPC]LHDKGKSIQDLRRRFFLHKLIAEIHTA-NH2
modifications: not fully specified; also: D6 β3 residues, positions not shown (marking lost)
cAMP EC50 [1]: 1.03 nM

B8: ACPC(7) PTH(1-34) (peptide)
peptide: SVSEIQ[ACPC]MHNLGKHLNSMERVEWLRKKLQDVHNF-NH2
Fold PTH [15]: 1.3 fold
cAMP EC50 [15]: 0.12 nM
Fold PTH (delNT PTHR1): 74 fold
cAMP EC50 (delNT PTHR1): 4600 nM
cAMP response PTH1R/PTH2R [16]: 44 ratio

B9: ACPC(1,5,7) (peptide)
peptide: [ACPC]VSE[ACPC]Q[ACPC]MHNLGKHLNSMERVEWLRKKLQDVHNF-NH2
cAMP response PTH2R/PTH1R [17]: 11 ratio
Fold PTH [18]: 36.7 fold
cAMP EC50 [18]: 2.99 nM

Other lines, results leading:

cAMP EC50 [1]: 1.08 nM
B2: CycD6 hPTHrP(1-34) ACPC(1,5,7) (peptide)
peptide: [ACPC]VSE[ACPC]Q[ACPC]LHDKGK[ACPC]IQD[ACPC]RRR[APC]FLH[APC]LIA[ACPC]IHT[ACPC]-NH2

IC50 [2]: 1.54 nM
cAMP EC50 [3]: 0.21 nM
B3: FcycD6_β3Ser(1), Aib(3), ACPC (7) (peptide)
peptide: [β3hS]V[Aib]EIQ[ACPC″]MHNLGK[ACPC″]LNS[ACPC″]ERV[APC]WLR[APC]KLQ[ACPC″]VHN[ACPC″]-NH2

IC50 [2]: 89.4 nM
cAMP EC50 [3]: 0.79 nM
B4: FcycD6_β3Ser(1), ACPC(5,7) (peptide)
peptide: [β3hS]VSE[ACPC″]Q[ACPC″]MHNLGK[ACPC″]LNS[ACPC″]ERV[APC]WLR[APC]KLQ[ACPC″]VHN[ACPC″]-NH2

cAMP response PTH2R/PTH1R [17]: 45 ratio
Fold PTH [18]: 234 fold
cAMP EC50 [18]: 19.1 nM
cAMP EC50 [3]: 25.9 nM
B10: FcycD6_ACPC(1,5,7) (peptide)
peptide: [ACPC″]VSE[ACPC″]Q[ACPC″]MHNLGK[ACPC″]LNS[ACPC″]ERV[APC]WLR[APC]KLQ[ACPC″]VHN[ACPC″]-NH2

EC50(+)inhibitor/EC50(-)inhibitor [19]: 60.1 ratio
EC50 of PTH(1-34) signaling with 1 µM inhibitor [19]: 9.47 nM
B11: bPTH(7-34)dTrp12 (peptide)
peptide: FMHNL[dW]KHLSSMERVEWLRKKLQDVHNF-NH2
modifications: N-terminus assumed
SMILES: CSCC[C@H](NC(=O)[C@H](CO)NC(=O)[C@H](CO)NC(=O)[C@H](CC(C)C)NC(=O)[C@H](Cc1c[nH]cn1)NC(=O)[C@H](CCCCN)NC(=O)[C@@H](Cc1c[nH]c2ccccc12)NC(=O)[C@H](CC(C)C)NC(=O)[C@H](CC(N)=O)NC(=O)[C@H](Cc1c[nH]cn1)NC(=O)[C@H](CCSC)NC(=O)[C@@H](N)Cc1ccccc1)C(=O)N[C@@H](CCC(=O)O)C(=O)N[C@@H](CCCNC(=N)N)C(=O)N[C@H](C(=O)N[C@@H](CCC(=O)O)C(=O)N[C@@H](Cc1c[nH]c2ccccc12)C(=O)N[C@@H](CC(C)C)C(=O)N[C@@H](CCCNC(=N)N)C(=O)N[C@@H](CCCCN)C(=O)N[C@@H](CCCCN)C(=O)N[C@@H](CC(C)C)C(=O)N[C@@H](CCC(N)=O)C(=O)N[C@@H](CC(=O)O)C(=O)N[C@H](C(=O)N[C@@H](Cc1c[nH]cn1)C(=O)N[C@@H](CC(N)=O)C(=O)N[C@@H](Cc1ccccc1)C(N)=O)C(C)C)C(C)C
